Results published in the nanobody polyreactivity screen of Harvey et al. (2022).

Assay: yeast display, Sf9 membrane polyspecificity reagent, FACS + sequencing; frameworks hold sequencing errors
How it was run: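 Nanobodies from a synthetic yeast display library (Saccharomyces cerevisiae BJ5465), induced 36–48 hours with galactose, were stained 1 hour at 4 °C with 10% biotinylated, detergent-solubilized Sf9 membrane reagent, enriched on streptavidin microbeads, then FACS-sorted. Anti-HA (expression) and streptavidin (reagent binding) fluorescence set low and high (top ~1%) gates. Polyreactivity labels come from the gate of origin. Genes were colony-PCR amplified, MiSeq 2 × 250 sequenced and filtered by CDR length.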

Row | Sequence | polyreactivity (PSR sort gate)
1 | QVQLVESGGGLVQAGGSLRLSCAASGFIFGGYAMGWYRQAPGKERELVAAISRSGGSTYYADSVKGRFTISRDNAKNTVYLQMNSLKPEDTAVYYCAAKFWPEDHRMDYWGQGTQVTVSS | low polyreactivity
2 | QVQLVESGGGLVQAGGSLRLSCAASGFIFGGYAMGWYRQAPGKERELVAAISRSGGSTYYADSVKGRFTISRDNGKNTLNLKMNSLKREDTAVYYCNAVPRRQGFNYWGQGTQVTVSS | high polyreactivity
3 | QVQLVESGGGLVQAGGSLRLSCAASGFIFGKYAMGWYRQAHGKERELVAAITSDGRTYYADSVKGRFTISRDNAKNTVYLQMNSLKPEDTAVYYCAATRYGHRYYYRPYEYWGQGTQVTVSS | high polyreactivity
4 | QVQLVESGGGLVQAGGSLRLSCAASGFIFGKYAMGWYRQAPGKEREFVAAITGNGGSTYYADSVKGRFTISRDNAKNTVYLQMNSLKPEDTAVYYCNADRGYRRRSGMDYWGQGTQVTVSS | low polyreactivity
5 | QVQLVESGGGLVQAGGSLRLSCAASGFIFGKYAMGWYRQAPGKEREVVAAITSGGSTYYADSVKGRFTISRDNAKNTVYLQMNSLKPEDTAVYYCAVPFTFWWSSYRYDYWGQGTQVTVSS | high polyreactivity
6 | QVQLVESGGGLVQAGGSLRLSCAASGFIFGLYAMGWYRQAPGKERELVATISWDGGSTYYADSVKGRFTISRDNAKNTVYLQMNSLKPEDTAVYYCNARYIGGYGYWGQGTQVTVSS | low polyreactivity
7 | QVQLVESGGGLVQAGGSLRLSCAASGFIFGLYAMGWYRQAPGKERELVATISWDGGSTYYADSVKGRFTISRDYAKNTVYLQMNSLKPEDTAVYYCAATYLYRSPYVPMDYWGQGTQVTVSS | low polyreactivity
8 | QVQLVESGGGLVQAGGSLRLSCAASGFIFGNNDMGWYRQAPGKERELVAGITWSGSSTYYADSVKGRFTISRDNAKNTVYLQMNSLKPEDTAVYYCNRVFTWRYGYRYEYWGQGTQVTVSS | high polyreactivity
9 | QVQLVESGGGLVQAGGSLRLSCAASGFIFGNYAMGWYRQAPGKERELVATITRRGGRTYYADSVKGRFTISRDNAKNTVYLQMNSLKPEDSAVYYCNARPSRWAREGYWGQGTQVTVSS | high polyreactivity
10 | QVQLVESGGGLVQAGGSLRLSCAASGFIFGNYDMEWYRPAPGKERELVAAITNGGGNTYYADSVKGRITISRDNAKNTVYLQMNSLKPEDTAVSYCHPLRYYYWGQGTQVTVSS | high polyreactivity
11 | QVQLVESGGGLVQAGGSLRLSCAASGFIFGNYVMGWYRPAPGKERELVAAISESGSRTYYADSVKGRFTISRDNAKNTVYLQMNSLKPEDTAVYYCAAALFSYYGEYDYWGQGTQVTVSS | low polyreactivity
12 | QVQLVESGGGLVQAGGSLRLSCAASGFIFGQYAMGWYRQAPGKERELVAAISRSGGSTYYADSVKGRFTISRDNAKNTVYLQMNSLKPEDTAVYYCNRRDRGDSYRLDYWGQGTQVTVSS | high polyreactivity
13 | QVQLVESGGGLVQAGGSLRLSCAASGFIFGRNAMGWYRQAPGKERELVAAINWRGGSTYYADSVKGRCTISRDNAKNTVYLQMNSLKPEDTAVYYCAARGPYRYGYDYWGQGTQVTVSS | high polyreactivity
14 | QVQLVESGGGLVQAGGSLRLSCAASGFIFGRYAMGWYRQAPGKERELVAAISRGGGSTRYADSVKGRFTISRDNAKNTVYLQMKSLKPEDTAVYYCAAYRYWGRTSYSYDYWGQGTQVTVSS | high polyreactivity
15 | QVQLVESGGGLVQAGGSLRLSCAASGFIFGRYAMGWYRQAPGKERELVAAISSGDDTDYADSVKGRFTISRDNAKNTVYLQMNSLKPEDTAVSYCARSRFWSPVIYRRTIEFDSWGQGTQVTVSS | low polyreactivity
16 | QVQLVESGGGLVQAGGSLRLSCAASGFIFGRYAMGWYRQSPGKERELVAVISKRGDNTYYADSVKGRFTISRDNAKNTVYLQMNSLKPEDTAVYYCNVKRYGGRSDYWGQGTQVTVSS | high polyreactivity
17 | QVQLVESGGGLVQAGGSLRLSCAASGFIFGRYTMGWYRQAPGKERELVAAITYSGNTYYADSVKGRFTISRDKAKTTVYVQMNSLKPEDTALYYCNAYGANFRAFRNAYKYWGQGTQVTVSS | high polyreactivity
18 | QVQLVESGGGLVQAGGSLRLSCAASGFIFGSYALGWDRQAPGKEWELVAAINYDGGSTYYADSVKGRFTISRDHAKNTVYLQMNSLKPEDTAVYYCAADLYYTHMDYWGQGTQVTVSS | low polyreactivity
19 | QVQLVESGGGLVQAGGSLRLSCAASGFIFGSYAMGWYRQAPGKERELVAAISTGGGSTYYADSVKGRFTISRDNAKNTVYLQMNSLKPEDTAVYYCATDYRVTVWHPYQWYIYGYWGQGTQVTVSS | low polyreactivity
20 | QVQLVESGGGLVQAGGSLRLSCAASGFIFGSYTMGWYRQAPGKERELVAAISWSSGCSTYYADSVKGRFTISRDNAKNTVYLQMNSLKPEDTAVYYCAARHRGAGRNDFYYWGQGTQVTVSS | high polyreactivity
21 | QVQLVESGGGLVQAGGSLRLSCAASGFIFGTYAMGWYRQAPGNERELVAAISVGGGSTYYADSVKGRFTISRDNAKNTVYLQMNSLKPEDTAVYYCAAVQLYQKHQITYVAHEYWGQGTQVTVSS | low polyreactivity
22 | QVQLVESGGGLVQAGGSLRLSCAASGFIFGVNAMGWYRQAPGKEPELVAAINGGASTYYADSVKGRFTISRDNAKNTVYLQMNSLKPEDTAVYYCAAVFYDYRGRLYPNFGLYYYWGQGTQVTVSS | high polyreactivity

Row | Sequence | polyreactivity (PSR sort gate)
23 | QVQLVESGGGLVQAGGSLRLSCAASGFIFGVNAMVWYRQAPGKERELVAAITRNGGSTYYADSVKGRFTISRDNAKNTVYLQMKSLKPEDTAVYYCAKYVRRAPSTFDVDYWGQGTQVTVSS | high polyreactivity
24 | QVQLVESGGGLVQAGGSLRLSCAASGFIFGVYAMGWYRQAPGKERELVAAISRSGGSTYYADSVKGRFTISRDNAKNTVYLQMNSLKPEDTAVYYCATQVSWYGKGYYYWGQGTQVTVSS | high polyreactivity
25 | QVQLVESGGGLVQAGGSLRLSCAASGFIFGWNAMGWYREAPGKERELVAALTRTGSTYYADSVKGRFTISRDNAKNTVYLQMNSLKPEDTAVYYCAASYGSRSTRTEGYWGQGTQVTVSS | low polyreactivity
26 | QVQLVESGGGLVQAGGSLRLSCAASGFIFGYNAMGGYRLAPGKERELVAAISSYGGSPYYADSVKGRFTISRDNAKNTVYLQMNTLKPEDTAVYYWAARPVALRKYDYWGQGTQLTVSS | low polyreactivity
27 | QVQLVESGGGLVQAGGSLRLSCAASGFIFGYNAMGWYRQAAGKERELVAAISYSGGGTYYADSVKGRFTISRDNAKNTVYLQMNSLKPEDTAVYYCAARSWGRRSYDYWGQGTQVTVSS | high polyreactivity
28 | QVQLVESGGGLVQAGGSLRLSCAASGFIFGYNAMGWYRQAPGIERELVAAITASGGSTYYADSVKGRFTISLDNAKNTVYLQLNSLIPEDTAVYYCATVLRKNGERGNRLYYWGQGTQVTVSS | high polyreactivity
29 | QVQLVESGGGLVQAGGSLRLSCAASGFIFGYNAMGWYRQAPGKERELVASITINDGSTYYADSVKGRFTISRDNAKNTVYLQMNCLKPEDTAVYYCAAGGWYSLDILPYRYDYWGQGTQVTVSS | low polyreactivity
30 | QVQLVESGGGLVQAGGSLRLSCAASGFIFGYNGMGWYRQAPGKERELVAGITYSDGSTYYADSVKGRFTISRDNAKNTVYLQMNSLKPEDTAVYYCAVEVGYTDSPYSYDYWGQGTQVTVSS | low polyreactivity
31 | QVQLVESGGGLVQAGGSLRLSCAASGFIFGYYAMGWYRQAPGKERELVAAINRSGSTYYADSVKGPFTISRDNAKNTVYLQMNSLKPEDTAVYYCKLRHYVGLSKGDYWGQGTQVTVSS | high polyreactivity
32 | QVQLVESGGGLVQAGGSLRLSCAASGFIFGYYAMGWYRQAPGKERELVAAISWSGGSTYYADSVKGRFTISRDKAKNTVYLQMNSLKPEDTAVYYCATASPSTRYGRLGDYWGQGTQVTVSS | low polyreactivity
33 | QVQLVESGGGLVQAGGSLRLSCAASGFIFGYYAMGWYRQAPGKERELVAAISWSGGSTYYADSVKGRFTISRDNAKNTVYLQMNSLKPEDTAVYYCATASPSTRYGRLGDYWGQGTQVTVSS | low polyreactivity
34 | QVQLVESGGGLVQAGGSLRLSCAASGFIFGYYAMGWYRQAPGKERELVAAITGGGSTYYADSVKGRFTISRDNAKNTVYLQMNSLKPEDTAVYDCNADYGDGEYDYWGQGTQVTVSS | low polyreactivity
35 | QVQLVESGGGLVQAGGSLRLSCAASGFIFHDNAMGWYRQAPGKERELVAAIRSTGSTNYADSVKGRFTISRDNAKNTVYLQMNSLKPEDTAVYYCNAGKYQSDTPSLDPTEYPAFYYWGQGTQVTVSS | low polyreactivity
36 | QVQLVESGGGLVQAGGSLRLSCAASGFIFHLYGMGWYRQAPGKERELVAAISSGGRTYYADSVKGRFTISRDNAKNTVYLQMNSLKPEDTAVYYCAVYVAYLYSYYYWGQGTQVTVSS | low polyreactivity
37 | QVQLVESGGGLVQAGGSLRLSCAASGFIFHNYVMGWYRQAPGKERELVAVISGSGGSTYYADSVKGRFTISRDNAKNTVYLQMNSLKPEDTAVYYCAADNVYGYDYWGQGTQVTVSS | low polyreactivity
38 | QVQLVESGGGLVQAGGSLRLSCAASGFIFHRYAMGWYRQAPGKERELVAAISSSGGSTYYADSVKGRFTISRDNAKNTVYLQMNSLKPEDTAVYYCAAEEEEFIYDYWGQGTQVTVSS | high polyreactivity
39 | QVQLVESGGGLVQAGGSLRLSCAASGFIFHSYAMRWYRQAPGKERELVAAITHSGGRTYYADCVKGRFTISRDNAKNTVYLQMNSLKPEDTAVYYCAAVTRRHEYDYWGQGSQVTVSS | high polyreactivity
40 | QVQLVESGGGLVQAGGSLRLSCAASGFIFHTYAMGWYRQAPGKEREFVAAISGGTSSTYYADSVKGRFTISRDNAKNTVYLQMNSLKPEDTAVYYCAARSRRGGYPRYYYWGQGTQVTVSS | high polyreactivity
41 | QVQLVESGGGLVQAGGSLRLSCAASGFIFHWNAMGWYRQAPGKERELVAAITWRGTNTYYADSVKGRFTISRDNAKNTVYLQMNSLKPEDTAVYYCAGTRNPWPTSFDYWGQGTQVTVSS | low polyreactivity
42 | QVQLVESGGGLVQAGGSLRLSCAASGFIFIHNAMGWYRQAPGKERELVAAISYSGGSTYYADSVKGRFTISRDNAKNTVYLQMNSLKPEDTAVYYCNRVQYYRADRMDYWGQGTQVTVSS | low polyreactivity
43 | QVQLVESGGGLVQAGGSLRLSCAASGFIFIQYAMGWYRQAPGKERELVAAISRSGGSTSYADSVKGRFTISRDNAKNTVYLQMNSLKPEDTAVYYCNRYYGSSGHGRPNEKYGYWGQGTQVTVSS | low polyreactivity
